Experimental data from the DeepSol protein solubility set.

Assay: soluble on expression in E. coli; label from the status in PepcDB or PDB records

Sequence | soluble on expression in E. coli
MKLWSGGIQRDQNADSTVAFVKRDIEAEIYLMKYEILSLIAYHLDLAQRRLITEAESKCIINSLISLLQDSPKIDPEQEDAHTAVENAVIERCGDMGRNVRLFLSRNEQVHANVLMFTIERCHSIISILLDSIKVLKGADLKGLLPGTTHFMPAMPVTAATYSNYIENSLALAIRSIDRSLADASVLPYGYGSGYGSPNSGKLKVMSEMLGIGPVLKNPMIASSLYQFTIMQISNSIAGLSITLSRIAMDLIEYYRDGYVSLSDEFTTGSSLMPNKRNPDYLELLQGMAAVSSSVAVMSAMATMNKTSGYHRDFQMLKDSYIDMLNYIEEALLRLPDLFKGLRFEITDPMMLPGSIFATGNAWEDFANTHDWKQSYANIGRKIREKQDLKRYMPEDYVDIVEMHYLEEIEKKYGEILKKWDYLIEKAEAYISE | soluble
GHMVTMSTEPVSASDKYQKISQLEHILKRPDTYIGSVETQEQLQWIYDEETDCMIEKNVTIVPGLFKIFDEILVNAADNKVRDPSMKRIDVNIHAEEHTIEVKNDGKGIPIEIHNKENIYIPEMIFGHLLTSSNYDDDEKKVTGGRNGYGAKLCNIFSTEFILETADLNVGQKYVQKWENNMSICHPPKITSYKKGPSYTKVTFKPDLTRFGMKELDNDILGVMRRRVYDINGSVRDINVYLNGKSLKIRNFKNYVELYLKSLEKKRQLDNGEDGAAKSDIPTILYERINNRWEVAFAVSDISFQQISFVNSIATTMGGTHVNYITDQIVKKISEILKKKKKKSVKSFQIKNNMFIFINCLIENPAFTSQTKEQLTTRVKDFGSRCEIPLEYINKIMKTDLATRMFEIADANEENALK | soluble
SSFSWDNCDEGKDPAVIRSLTLEPDPIIVPGNVTLSVMGSTSVPLSSPLKVDLVLEKEVAGLWIKIPCTDYIGSCTFEHFCDVLDMLIPTGEPCPEPLRTYGLPCHCPFKEGTYSLPKSEFVVPDLELPSWLTTGNYRIESVLSSSGKRLGCIKIAASLKGI | soluble
MAKKEEYVRKPDWLKIKLNTNETYTGLKKMMREKNLHTVCEEAKCPNIHECWAVRKTATFMILGDVCTRACRFCAVKTGLPNELDLQEPERVAESVEIMGLKHAVITAVARDDLKDGGAGVFAETVRAVRRRNPFCTIEVLPSDMMGNDDNLKTLMDARPNILNHNIETVRRLTPRVRARATYERSLEFLRRAKEMQPDIPTKSSLMIGLGETKDEIIETMDDLRANNVDIMTIGQYLQPTKKHLKVQKYYHPDEFAELKEIALSKGFSHCEAGPLVRSSYHADEQVNEAQVREEARKAAAKS | not soluble
MSLSTMLVAEDLSAVGGISLSSALPVLTAMQYDVAALPTSLLSTHTSGYGTPAVVDLSTWLPQVFAHWTRAQLHFDQALIGYVGSVALCQQITTYLEQQTLSLLVVDPVLGDLGQLYQGFDQDYVAAMRQLIQQADVILPNTTEAALLTGAPYQVTPDLEVILPALQAQLKTGAHAVITDVQRADQIGCAWLDEAGHVQYCGARRLPGHYNGTGDTLAAVIAGLLGRGYPLAPTLARANQWLNMAVAETIAQNRTDDRQGVALGDLLQAILALNEGHHHHHH | soluble
MNVSVVIPALNEEATVADVVALSRRGSDEVIVIDSDSTDATAARAKAAGASVVNWRDVVSLPPIPGKGEALWRGVAAARGDVVVFLDADLTEISPTIVEDLARPFIDDSVMLAKAAYTRGDASGGGGRVTELTARPLLEAFFPELGFVRQPLGGEYAIRRSAALDLPFVGGYGVEVGLLIDVFRCFGAASIVEVEAGHRGHRHRPLRELAPMARVVASTILQRAGVASGLDGVGQRPAISSLESGVGKVLEHHHHHH | soluble
MAMVVSSWRDPQDDVAGGNPGGPNPAAQAARGGGGGAGEQQQQAGSGAPHTPQTPGQPGAPATPGTAGDKGQGPPGSGQSQQHIECVVCGDKSSGKHYGQFTCEGCKSFFKRSVRRNLTYTCRANRNCPIDQHHRNQCQYCRLKKCLKVGMRREAVQRGRMPPTQPNPGQYALTNGDPLNGHCYLSGYISLLLRAEPYPTSRYGSQCMQPNNIMGIENICELAARLLFSAVEWARNIPFFPDLQITDQVSLLRLTWSELFVLNAAQCSMPLHVAPLLAAAGLHASPMSADRVVAFMDHIRIFQEQVEKLKALHVDSAEYSCLKAIVLFTSDACGLSDAAHIESLQEKSQCALEEYVRSQYPNQPSRFGKLLLRLPSLRTVSSSVIEQLFFVRLVGKTPIETLIRDMLLSGSSFNWPYMSIQCS | soluble
